Experimental data as given in the supplement of paper PMC6379048.
pEC50: −log10 of the molar value.

Columns and labels:
Assay in all cases: EC50 of free RNA motif oligo competing protein binding to immobilised probe
[1] = target: MRPL11 (UniProt Q9Y3B7)
How it was run: (§1)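 Over three biological replicates and two independent experiments, proteins captured on NHS-Sepharose beads carrying 5′-amino-C6 RNA oligos were quantified by label-free LC-MS/MS and normalised to the control. Capture lasted 30 min at 4°C and followed a 1 h pre-incubation at 4°C of HEK293-FT lysate (2.5 mg protein/well) with the same oligos in free form (0 nM to 30 μM). EC50 was taken from a four-parameter log-logistic fit, and Kd was EC50 corrected by a protein-dependent depletion factor.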

[2] = target: PIP5K1A (UniProt Q99755)
How it was run: as §1

[3] = target: T1, SRSF11 (UniProt Q05519)
T1 sequence: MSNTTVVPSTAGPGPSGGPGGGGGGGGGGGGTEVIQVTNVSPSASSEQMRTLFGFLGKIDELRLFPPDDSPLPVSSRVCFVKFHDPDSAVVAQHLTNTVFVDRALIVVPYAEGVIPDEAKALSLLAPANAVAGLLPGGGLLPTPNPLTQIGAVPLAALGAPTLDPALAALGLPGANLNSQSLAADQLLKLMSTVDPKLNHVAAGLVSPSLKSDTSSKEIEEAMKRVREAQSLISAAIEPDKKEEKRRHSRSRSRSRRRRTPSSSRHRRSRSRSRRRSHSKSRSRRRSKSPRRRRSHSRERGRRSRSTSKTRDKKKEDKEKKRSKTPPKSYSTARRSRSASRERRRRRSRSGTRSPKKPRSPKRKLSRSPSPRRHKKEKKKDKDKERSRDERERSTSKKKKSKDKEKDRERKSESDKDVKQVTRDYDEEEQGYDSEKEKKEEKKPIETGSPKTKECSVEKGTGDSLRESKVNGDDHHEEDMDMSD
How it was run: as §1

[4] = target: T2, HNRNPA0 (UniProt Q13151)
T2 sequence: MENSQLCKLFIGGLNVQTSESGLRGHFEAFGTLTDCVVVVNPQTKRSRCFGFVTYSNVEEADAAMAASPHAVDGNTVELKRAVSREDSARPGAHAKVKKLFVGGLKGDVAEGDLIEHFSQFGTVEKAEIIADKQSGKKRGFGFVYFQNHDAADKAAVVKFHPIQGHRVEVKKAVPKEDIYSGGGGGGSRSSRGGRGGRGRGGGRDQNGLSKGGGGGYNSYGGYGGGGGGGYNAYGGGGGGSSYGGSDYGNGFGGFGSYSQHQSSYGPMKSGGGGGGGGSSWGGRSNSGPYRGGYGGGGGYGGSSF
How it was run: as §1

[5] = target: T3, PRPF31 (UniProt Q8WWY3)
T3 sequence: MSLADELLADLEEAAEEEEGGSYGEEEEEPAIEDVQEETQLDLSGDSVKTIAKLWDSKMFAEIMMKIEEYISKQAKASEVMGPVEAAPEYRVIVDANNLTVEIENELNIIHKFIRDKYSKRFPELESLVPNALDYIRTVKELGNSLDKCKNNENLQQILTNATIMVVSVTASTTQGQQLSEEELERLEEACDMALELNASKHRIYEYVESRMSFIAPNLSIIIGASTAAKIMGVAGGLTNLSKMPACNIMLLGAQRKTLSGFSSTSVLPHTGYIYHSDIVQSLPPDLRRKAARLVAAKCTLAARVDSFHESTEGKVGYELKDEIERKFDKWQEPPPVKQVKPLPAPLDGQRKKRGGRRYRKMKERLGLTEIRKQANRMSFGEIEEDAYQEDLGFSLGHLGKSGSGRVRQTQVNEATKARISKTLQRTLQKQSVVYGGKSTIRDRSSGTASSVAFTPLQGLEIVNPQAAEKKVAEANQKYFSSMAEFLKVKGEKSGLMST
How it was run: as §1

Chain of PIP5K1A (Q99755 whole entry): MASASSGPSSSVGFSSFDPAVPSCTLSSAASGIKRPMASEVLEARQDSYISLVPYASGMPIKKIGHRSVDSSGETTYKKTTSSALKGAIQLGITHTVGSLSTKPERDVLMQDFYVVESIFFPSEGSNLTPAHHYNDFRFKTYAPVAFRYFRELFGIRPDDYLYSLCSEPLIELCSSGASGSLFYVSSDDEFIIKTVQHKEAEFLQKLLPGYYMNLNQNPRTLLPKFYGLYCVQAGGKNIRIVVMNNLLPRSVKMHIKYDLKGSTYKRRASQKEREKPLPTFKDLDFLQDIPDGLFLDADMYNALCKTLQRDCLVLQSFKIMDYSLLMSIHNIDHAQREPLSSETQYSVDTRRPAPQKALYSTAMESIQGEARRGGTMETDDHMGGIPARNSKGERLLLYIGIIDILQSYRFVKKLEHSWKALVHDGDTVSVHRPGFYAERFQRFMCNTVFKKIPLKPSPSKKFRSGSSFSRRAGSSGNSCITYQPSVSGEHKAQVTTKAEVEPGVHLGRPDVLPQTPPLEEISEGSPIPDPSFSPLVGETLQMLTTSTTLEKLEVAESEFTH

CUGUCCU was tested, and the pEC50 [1] was 6.93.
Sequence AAUAAA has a pEC50 [2] of 5.65 and a pEC50 [3] of 5.95.
UAUUUAU was tested, and the pEC50 [4] was 5.31 and the pEC50 [5] was 5.23.
